Values quoted from earlier work in patent US20140213534A1, “INTESTINAL HYPERPERMEABILITY AND PREVENTION OF SYSTEMIC DISEASE” (Thomas Jefferson University, priority 2011, published 2014).

Biological target: ST receptors (Homo sapiens, UniProt P25092)
Conditions: relative to native ST; Currie et al. 1992

Sequence of ST receptors (P25092 24-1073): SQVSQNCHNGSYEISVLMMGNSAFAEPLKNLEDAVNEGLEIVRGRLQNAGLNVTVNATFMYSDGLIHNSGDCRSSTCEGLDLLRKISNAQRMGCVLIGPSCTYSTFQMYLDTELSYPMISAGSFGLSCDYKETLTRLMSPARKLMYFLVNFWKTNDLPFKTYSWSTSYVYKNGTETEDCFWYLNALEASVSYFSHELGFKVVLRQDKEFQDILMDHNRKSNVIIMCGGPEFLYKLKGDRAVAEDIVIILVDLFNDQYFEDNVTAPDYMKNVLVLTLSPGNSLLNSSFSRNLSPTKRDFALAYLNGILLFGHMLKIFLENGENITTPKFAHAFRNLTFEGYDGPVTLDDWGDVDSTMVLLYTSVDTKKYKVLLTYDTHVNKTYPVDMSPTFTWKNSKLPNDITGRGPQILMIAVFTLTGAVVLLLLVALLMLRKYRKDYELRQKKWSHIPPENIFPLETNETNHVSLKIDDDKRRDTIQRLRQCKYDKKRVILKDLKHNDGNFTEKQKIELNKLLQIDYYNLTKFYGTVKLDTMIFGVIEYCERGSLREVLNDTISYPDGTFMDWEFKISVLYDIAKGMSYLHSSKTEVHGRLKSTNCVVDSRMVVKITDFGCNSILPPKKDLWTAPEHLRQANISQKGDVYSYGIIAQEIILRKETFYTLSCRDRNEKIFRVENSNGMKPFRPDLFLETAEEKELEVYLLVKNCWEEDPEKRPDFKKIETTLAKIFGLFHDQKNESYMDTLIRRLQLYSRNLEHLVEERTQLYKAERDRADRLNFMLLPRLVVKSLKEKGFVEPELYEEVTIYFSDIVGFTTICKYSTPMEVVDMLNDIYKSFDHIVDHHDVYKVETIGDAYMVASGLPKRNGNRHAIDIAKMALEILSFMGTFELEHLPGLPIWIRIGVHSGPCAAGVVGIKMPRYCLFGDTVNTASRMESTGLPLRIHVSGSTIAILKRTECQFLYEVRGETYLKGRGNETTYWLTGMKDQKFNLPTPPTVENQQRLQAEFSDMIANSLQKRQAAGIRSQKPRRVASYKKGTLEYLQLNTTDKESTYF

activates guanylate cyclase at a level fold less than native ST: 10- to 100 fold
Substance: Guanylin: 15 amino acid peptide with about 50% sequence homology to ST, identified in mammalian intestine; endogenous GCC agonist (PNTCEICAYAACTGC; Rattus Norvegious)
